Test results from patent publication US20230183352A1 (published 2023).

Molecular target: Claudin 18.2 (CLDN18.2), expressed on CHOS-CLDN 18.2 / HEK293-CLDN 18.2 / HCC827-CLDN 18.2 cells (human, UniProt P56856 1-261)
Experiment: cell ELISA

EC50 [µg/mL] | Binder
0.115 | QP14501448 (antibody, V domains shown) VH: EVQLVESGGGLVQPGGSLRLSCAASGFTFSSFGMHWVRQAPGKGLEWVAYISSGSNSIYYVDTVKGRFTISRDNAKNSLYLQMNSLRDEDTAVYYCARNAYYGNSFDYWGQGTLVTVSS VL: DIVMTQSPDSLAVSLGERATISCKSSQSLLNSGNQKNYLTWYQQKPGQPPKLLIYWASTRESGVPDRFTGSGSGTVFTLTISSLQAEDVAVYFCQNNYYYPLTFGGGTKVEIKR
0.133 | QP14511446 (antibody, V domains shown) VH: EVQLVESGGGLVQPGGSLRLSCAASGFTFSSFGMHWVRQAPGKGLEWVAYISSGSNSIYYVDTVKGRFTISRDNAKNSLYLQMNSLRSEDTAVYYCARNAYYGNSFDYWGQGTLVTVSS VL: DIVMTQSPDSLAVSLGERATINCKSSQSLLNSGNQKNYLTWYQQKPGQPPKLLIYWASTRESGVPDRFSGSGSGTDFTLTISSLQAEDVAVYYCQNNYYYPLTFGGGTKVEIK
0.105 | QP14661460 (antibody, V domains shown) VH: EVQLVQSGAEVKKPGASVKVSCKASGYTFTSYIMHWVKQAPGQGLEWIGYINPYNDGTKYNEKFKGKATLTSDKSTSTVYMELSSLRSEDTAVYCCARLGFTTRNAMDYWGQGTLVTVSS VL: DIVMTQSPDSLAVSLGERATINCKSSQSLLNSGNQKNYLAWYQQKPGQPPKLLIYGASTRESGVPDRFSGSGSGTDFTLTISSLQAEDVAVYYCQNDHSYPFTFGQGTKLEIK
0.538 | QP14661462 (antibody, V domains shown) VH: EVQLVQSGAEVKKPGASVKVSCKASGYTFTSYIMHWVKQAPGQGLEWIGYINPYNDGTKYNEKFKGKATLTSDKSTSTVYMELSSLRSEDTAVYCCARLGFTTRNAMDYWGQGTLVTVSS VL: DIVMTQSPDSLAVSLGERATINCKSSQSLLNSGNQKNYLAWYQQKPGQPPKLLIYGASTRESGVPDRFTGSGSGTDFTLTISSVQAEDVAVYYCQNDHSYPFTFGQGTKLEIK
0.301 | QP14651461 (antibody, V domains shown) VH: EVQLVQSGAEVKKPGASVKVSCKASGYTFTSYIMHWVRQAPGQGLEWIGYINPYNDGTKYNEKFKGRVTLTSDKSTSTVYMELSSLRSEDTAVYYCARLGFTTRNAMDYWGQGTLVTVSS VL: DIVMTQSPDSLAVSLGERATINCKSSQSLLNSGNQKNYLAWYQQKPGQPPKLLIYGASTRESGVPDRFTGSGSGTDFTLTISSLQAEDVAVYYCQNDHSYPFTFGQGTKLEIK

More lines, now with the values behind:

Binder | EC50 [µg/mL]
QP14491448 (antibody, V domains shown) VH: EVQLVESGGGLVQPGGSLRLSCAASGFTFSSFGMHWVRQAPGKGLEWVSYISSGSNSIYYVDTVKGRFTISRDNAKNSLYLQMNSLRDEDTAVYYCARNAYYGNSFDYWGQGTLVTVSS VL: DIVMTQSPDSLAVSLGERATISCKSSQSLLNSGNQKNYLTWYQQKPGQPPKLLIYWASTRESGVPDRFTGSGSGTVFTLTISSLQAEDVAVYFCQNNYYYPLTFGGGTKVEIKR | 0.12
QP14501447 (antibody, V domains shown) VH: EVQLVESGGGLVQPGGSLRLSCAASGFTFSSFGMHWVRQAPGKGLEWVAYISSGSNSIYYVDTVKGRFTISRDNAKNSLYLQMNSLRDEDTAVYYCARNAYYGNSFDYWGQGTLVTVSS VL: DIVMTQSPDSLAVSLGERATISCKSSQSLLNSGNQKNYLTWYQQKPGQPPKLLIYWASTRESGVPDRFSGSGSGTDFTLTISSLQAEDVAVYFCQNNYYYPLTFGGGTKVEIK | 0.0926
QP14501446 (antibody, V domains shown) VH: EVQLVESGGGLVQPGGSLRLSCAASGFTFSSFGMHWVRQAPGKGLEWVAYISSGSNSIYYVDTVKGRFTISRDNAKNSLYLQMNSLRDEDTAVYYCARNAYYGNSFDYWGQGTLVTVSS VL: DIVMTQSPDSLAVSLGERATINCKSSQSLLNSGNQKNYLTWYQQKPGQPPKLLIYWASTRESGVPDRFSGSGSGTDFTLTISSLQAEDVAVYYCQNNYYYPLTFGGGTKVEIKR | 0.109
